How the values were obtained:
[1] = target: T1, FcγRIa extracellular domain with C-terminal His tag (human, UniProt P12314 16-292); assay: ratio He/Con_1a : He/Con_2b (FcγRIa over FcγRIIb), SPR (Biacore)
T1 construct: extracellular domain; Soluble receptor used as analyte in Biacore; also called FcgRI

[2] = target: T1, FcγRIa extracellular domain with …; assay: SPR (Biacore), antibody captured, FcγR as analyte; binding relative to GpH7-A5/GpH7-B3/GpL16-k0 = 100
[3] = target: T2, FcγRIIb extracellular domain with C-terminal His tag (human, UniProt P31994 43-217); assay: as above
T2 construct: extracellular domain; Soluble receptor used as analyte in Biacore; also called FcgRIIb
T2 sequence (looked up): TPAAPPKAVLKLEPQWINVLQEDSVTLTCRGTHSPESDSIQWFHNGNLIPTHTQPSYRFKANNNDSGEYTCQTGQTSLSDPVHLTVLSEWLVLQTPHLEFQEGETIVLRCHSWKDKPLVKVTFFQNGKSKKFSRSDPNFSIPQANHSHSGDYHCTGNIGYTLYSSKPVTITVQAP

T1 sequence (P12314 16-292): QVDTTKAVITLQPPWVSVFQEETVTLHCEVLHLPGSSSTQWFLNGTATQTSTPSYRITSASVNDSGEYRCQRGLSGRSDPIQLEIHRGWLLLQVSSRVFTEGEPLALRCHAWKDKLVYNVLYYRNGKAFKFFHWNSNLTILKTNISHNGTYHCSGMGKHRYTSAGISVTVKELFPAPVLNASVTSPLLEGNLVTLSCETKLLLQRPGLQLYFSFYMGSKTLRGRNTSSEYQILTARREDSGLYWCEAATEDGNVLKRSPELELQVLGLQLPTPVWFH

Row | Binder | He_1a/2b (Ia/IIb) [1] | He/Con_1a [2] [control = 100] | He/Con_2b [3] [control = 100]
1 | GpH7-A5/GpH7-B3 variant L328_04F/GpL16-k0 (antibody, human IgG1, kappa, Heterodimerized IgG1, mutation in the GpH7-B3 chain only; also called He Ab) heavy 1: not shown heavy 2: not shown light: DIVMTQSPLSLPVTPGEPASISCQASESLVHSNRNTYLHWYLQKPGQSPQLLIYKVSNRFSGVPDRFSGSGSGTDFTLKISRVEAEDVGVYYCSQNTHVPPTFGQGTKVEIERTVAAPSVFIFPPSDEQLKSGTASVVCLLNNFYPREAKVQWKVDNALQSGNSQESVTEQDSKDSTYSLSSTLTLSKADYEKHKVYACEVTHQGLSSPVTKSFNRGEC | 0.45 | 97.9 | 219
2 | GpH7-A5/GpH7-B3 variant N325_06M/GpL16-k0 (antibody, human IgG1, kappa, Heterodimerized IgG1, mutation in the GpH7-B3 chain only; also called He Ab) heavy 1: not shown heavy 2: not shown light: DIVMTQSPLSLPVTPGEPASISCQASESLVHSNRNTYLHWYLQKPGQSPQLLIYKVSNRFSGVPDRFSGSGSGTDFTLKISRVEAEDVGVYYCSQNTHVPPTFGQGTKVEIERTVAAPSVFIFPPSDEQLKSGTASVVCLLNNFYPREAKVQWKVDNALQSGNSQESVTEQDSKDSTYSLSSTLTLSKADYEKHKVYACEVTHQGLSSPVTKSFNRGEC | 0.45 | 97.6 | 217
3 | GpH7-A5/GpH7-B3 variant L328_07I/GpL16-k0 (antibody, human IgG1, kappa, Heterodimerized IgG1, mutation in the GpH7-B3 chain only; also called He Ab) heavy 1: not shown heavy 2: not shown light: DIVMTQSPLSLPVTPGEPASISCQASESLVHSNRNTYLHWYLQKPGQSPQLLIYKVSNRFSGVPDRFSGSGSGTDFTLKISRVEAEDVGVYYCSQNTHVPPTFGQGTKVEIERTVAAPSVFIFPPSDEQLKSGTASVVCLLNNFYPREAKVQWKVDNALQSGNSQESVTEQDSKDSTYSLSSTLTLSKADYEKHKVYACEVTHQGLSSPVTKSFNRGEC | 0.62 | 99.4 | 160
4 | GpH7-A5/GpH7-B3 variant N325_07I/GpL16-k0 (antibody, human IgG1, kappa, Heterodimerized IgG1, mutation in the GpH7-B3 chain only; also called He Ab) heavy 1: not shown heavy 2: not shown light: DIVMTQSPLSLPVTPGEPASISCQASESLVHSNRNTYLHWYLQKPGQSPQLLIYKVSNRFSGVPDRFSGSGSGTDFTLKISRVEAEDVGVYYCSQNTHVPPTFGQGTKVEIERTVAAPSVFIFPPSDEQLKSGTASVVCLLNNFYPREAKVQWKVDNALQSGNSQESVTEQDSKDSTYSLSSTLTLSKADYEKHKVYACEVTHQGLSSPVTKSFNRGEC | 0.55 | 94.8 | 171
5 | GpH7-A5/GpH7-B3 variant L328_15Y/GpL16-k0 (antibody, human IgG1, kappa, Heterodimerized IgG1, mutation in the GpH7-B3 chain only; also called He Ab) heavy 1: not shown heavy 2: not shown light: DIVMTQSPLSLPVTPGEPASISCQASESLVHSNRNTYLHWYLQKPGQSPQLLIYKVSNRFSGVPDRFSGSGSGTDFTLKISRVEAEDVGVYYCSQNTHVPPTFGQGTKVEIERTVAAPSVFIFPPSDEQLKSGTASVVCLLNNFYPREAKVQWKVDNALQSGNSQESVTEQDSKDSTYSLSSTLTLSKADYEKHKVYACEVTHQGLSSPVTKSFNRGEC | 0.53 | 102 | 193
6 | GpH7-A5/GpH7-B3 variant N325_20W/GpL16-k0 (antibody, human IgG1, kappa, Heterodimerized IgG1, mutation in the GpH7-B3 chain only; also called He Ab) heavy 1: not shown heavy 2: not shown light: DIVMTQSPLSLPVTPGEPASISCQASESLVHSNRNTYLHWYLQKPGQSPQLLIYKVSNRFSGVPDRFSGSGSGTDFTLKISRVEAEDVGVYYCSQNTHVPPTFGQGTKVEIERTVAAPSVFIFPPSDEQLKSGTASVVCLLNNFYPREAKVQWKVDNALQSGNSQESVTEQDSKDSTYSLSSTLTLSKADYEKHKVYACEVTHQGLSSPVTKSFNRGEC | 0.56 | 93.8 | 169
7 | GpH7-A5/GpH7-B3 variant N325_13S/GpL16-k0 (antibody, human IgG1, kappa, Heterodimerized IgG1, mutation in the GpH7-B3 chain only; also called He Ab) heavy 1: not shown heavy 2: not shown light: DIVMTQSPLSLPVTPGEPASISCQASESLVHSNRNTYLHWYLQKPGQSPQLLIYKVSNRFSGVPDRFSGSGSGTDFTLKISRVEAEDVGVYYCSQNTHVPPTFGQGTKVEIERTVAAPSVFIFPPSDEQLKSGTASVVCLLNNFYPREAKVQWKVDNALQSGNSQESVTEQDSKDSTYSLSSTLTLSKADYEKHKVYACEVTHQGLSSPVTKSFNRGEC | 0.55 | 96.8 | 177
8 | GpH7-A5/GpH7-B3 variant N325_04F/GpL16-k0 (antibody, human IgG1, kappa, Heterodimerized IgG1, mutation in the GpH7-B3 chain only; also called He Ab) heavy 1: not shown heavy 2: not shown light: DIVMTQSPLSLPVTPGEPASISCQASESLVHSNRNTYLHWYLQKPGQSPQLLIYKVSNRFSGVPDRFSGSGSGTDFTLKISRVEAEDVGVYYCSQNTHVPPTFGQGTKVEIERTVAAPSVFIFPPSDEQLKSGTASVVCLLNNFYPREAKVQWKVDNALQSGNSQESVTEQDSKDSTYSLSSTLTLSKADYEKHKVYACEVTHQGLSSPVTKSFNRGEC | 0.65 | 93.2 | 143
9 | GpH7-A5/GpH7-B3 variant L328_06M/GpL16-k0 (antibody, human IgG1, kappa, Heterodimerized IgG1, mutation in the GpH7-B3 chain only; also called He Ab) heavy 1: not shown heavy 2: not shown light: DIVMTQSPLSLPVTPGEPASISCQASESLVHSNRNTYLHWYLQKPGQSPQLLIYKVSNRFSGVPDRFSGSGSGTDFTLKISRVEAEDVGVYYCSQNTHVPPTFGQGTKVEIERTVAAPSVFIFPPSDEQLKSGTASVVCLLNNFYPREAKVQWKVDNALQSGNSQESVTEQDSKDSTYSLSSTLTLSKADYEKHKVYACEVTHQGLSSPVTKSFNRGEC | 0.7 | 98.7 | 142
10 | GpH7-A5/GpH7-B3 variant L328_13S/GpL16-k0 (antibody, human IgG1, kappa, Heterodimerized IgG1, mutation in the GpH7-B3 chain only; also called He Ab) heavy 1: not shown heavy 2: not shown light: DIVMTQSPLSLPVTPGEPASISCQASESLVHSNRNTYLHWYLQKPGQSPQLLIYKVSNRFSGVPDRFSGSGSGTDFTLKISRVEAEDVGVYYCSQNTHVPPTFGQGTKVEIERTVAAPSVFIFPPSDEQLKSGTASVVCLLNNFYPREAKVQWKVDNALQSGNSQESVTEQDSKDSTYSLSSTLTLSKADYEKHKVYACEVTHQGLSSPVTKSFNRGEC | 0.66 | 99 | 149
11 | GpH7-A5/GpH7-B3 variant P331_03V/GpL16-k0 (antibody, human IgG1, kappa, Heterodimerized IgG1, mutation in the GpH7-B3 chain only; also called He Ab) heavy 1: not shown heavy 2: not shown light: DIVMTQSPLSLPVTPGEPASISCQASESLVHSNRNTYLHWYLQKPGQSPQLLIYKVSNRFSGVPDRFSGSGSGTDFTLKISRVEAEDVGVYYCSQNTHVPPTFGQGTKVEIERTVAAPSVFIFPPSDEQLKSGTASVVCLLNNFYPREAKVQWKVDNALQSGNSQESVTEQDSKDSTYSLSSTLTLSKADYEKHKVYACEVTHQGLSSPVTKSFNRGEC | 0.78 | 92 | 119
12 | GpH7-A5/GpH7-B3 variant N325_08L/GpL16-k0 (antibody, human IgG1, kappa, Heterodimerized IgG1, mutation in the GpH7-B3 chain only; also called He Ab) heavy 1: not shown heavy 2: not shown light: DIVMTQSPLSLPVTPGEPASISCQASESLVHSNRNTYLHWYLQKPGQSPQLLIYKVSNRFSGVPDRFSGSGSGTDFTLKISRVEAEDVGVYYCSQNTHVPPTFGQGTKVEIERTVAAPSVFIFPPSDEQLKSGTASVVCLLNNFYPREAKVQWKVDNALQSGNSQESVTEQDSKDSTYSLSSTLTLSKADYEKHKVYACEVTHQGLSSPVTKSFNRGEC | 0.5 | 97.5 | 197
13 | GpH7-A5/GpH7-B3 variant L328_14T/GpL16-k0 (antibody, human IgG1, kappa, Heterodimerized IgG1, mutation in the GpH7-B3 chain only; also called He Ab) heavy 1: not shown heavy 2: not shown light: DIVMTQSPLSLPVTPGEPASISCQASESLVHSNRNTYLHWYLQKPGQSPQLLIYKVSNRFSGVPDRFSGSGSGTDFTLKISRVEAEDVGVYYCSQNTHVPPTFGQGTKVEIERTVAAPSVFIFPPSDEQLKSGTASVVCLLNNFYPREAKVQWKVDNALQSGNSQESVTEQDSKDSTYSLSSTLTLSKADYEKHKVYACEVTHQGLSSPVTKSFNRGEC | 0.71 | 100 | 141
14 | GpH7-A5/GpH7-B3 variant L328_20W/GpL16-k0 (antibody, human IgG1, kappa, Heterodimerized IgG1, mutation in the GpH7-B3 chain only; also called He Ab) heavy 1: not shown heavy 2: not shown light: DIVMTQSPLSLPVTPGEPASISCQASESLVHSNRNTYLHWYLQKPGQSPQLLIYKVSNRFSGVPDRFSGSGSGTDFTLKISRVEAEDVGVYYCSQNTHVPPTFGQGTKVEIERTVAAPSVFIFPPSDEQLKSGTASVVCLLNNFYPREAKVQWKVDNALQSGNSQESVTEQDSKDSTYSLSSTLTLSKADYEKHKVYACEVTHQGLSSPVTKSFNRGEC | 0.44 | 103 | 235
15 | GpH7-A5/GpH7-B3 variant L328_10E/GpL16-k0 (antibody, human IgG1, kappa, Heterodimerized IgG1, mutation in the GpH7-B3 chain only; also called He Ab) heavy 1: not shown heavy 2: not shown light: DIVMTQSPLSLPVTPGEPASISCQASESLVHSNRNTYLHWYLQKPGQSPQLLIYKVSNRFSGVPDRFSGSGSGTDFTLKISRVEAEDVGVYYCSQNTHVPPTFGQGTKVEIERTVAAPSVFIFPPSDEQLKSGTASVVCLLNNFYPREAKVQWKVDNALQSGNSQESVTEQDSKDSTYSLSSTLTLSKADYEKHKVYACEVTHQGLSSPVTKSFNRGEC | 0.59 | 101 | 172
16 | GpH7-A5/GpH7-B3 variant L328_09D/GpL16-k0 (antibody, human IgG1, kappa, Heterodimerized IgG1, mutation in the GpH7-B3 chain only; also called He Ab) heavy 1: not shown heavy 2: not shown light: DIVMTQSPLSLPVTPGEPASISCQASESLVHSNRNTYLHWYLQKPGQSPQLLIYKVSNRFSGVPDRFSGSGSGTDFTLKISRVEAEDVGVYYCSQNTHVPPTFGQGTKVEIERTVAAPSVFIFPPSDEQLKSGTASVVCLLNNFYPREAKVQWKVDNALQSGNSQESVTEQDSKDSTYSLSSTLTLSKADYEKHKVYACEVTHQGLSSPVTKSFNRGEC | 0.51 | 102 | 199
17 | GpH7-A5/GpH7-B3 variant P331_16H/GpL16-k0 (antibody, human IgG1, kappa, Heterodimerized IgG1, mutation in the GpH7-B3 chain only; also called He Ab) heavy 1: not shown heavy 2: not shown light: DIVMTQSPLSLPVTPGEPASISCQASESLVHSNRNTYLHWYLQKPGQSPQLLIYKVSNRFSGVPDRFSGSGSGTDFTLKISRVEAEDVGVYYCSQNTHVPPTFGQGTKVEIERTVAAPSVFIFPPSDEQLKSGTASVVCLLNNFYPREAKVQWKVDNALQSGNSQESVTEQDSKDSTYSLSSTLTLSKADYEKHKVYACEVTHQGLSSPVTKSFNRGEC | 0.8 | 92.4 | 116

— patent US20150344570A1 (published 2015)
